The values that follow come from US20130089893A1.

A value given as a limit tells only on which side of the number the result lay.

Assay [1] concerns the target heat-aggregated IgG (HAGG). In words: BIAcore equilibrium binding over immobilised HAGG; two-binding site model, KD2.
For assay [2], the target named is heat-aggregated IgG (HAGG). In words: BIAcore equilibrium binding over immobilised HAGG; two-binding site model, KD1.
Assay [3] deals with heat-aggregated IgG (HAGG). As to the kind of experiment: flow cytometry: inhibition of HAGG binding to human FcγRIIb on IIA1.6 cells.
Assay [4] deals with dimer-IgG (Wright et al., 1980). In words: flow cytometry: inhibition of dimer-IgG binding to neutrophils from two different individuals.
Assay [5] deals with human IgG monomer (Sandoglobulin, Novartis) (human). In words: BIAcore equilibrium binding over immobilised IgG (Sandoglobulin).
The target is the same in assay [6]. As to the kind of experiment: BIAcore equilibrium binding over immobilised IgG (Sandoglobulin), rounded value of the discussion.
Assay [7] has the same target. In words: BIAcore equilibrium binding over immobilised human IgG monomer; two-binding site model, KD2.
Assay [8] has as its target heat-aggregated IgG (HAGG). In words: BIAcore equilibrium binding over immobilised HAGG; KD1 against the monomer's KD.
The target in assay [9] is heat-aggregated IgG (HAGG). In words: cell-based or functional assay.
Assay [10] has as its target dimer-IgG (Wright et al., 1980). In words: flow cytometry, inhibition of dimer-IgG binding to human neutrophils (volunteer V1, Fcγ receptors m8) by purified rsFcγRIIa dimer.
For assay [11] the target is unchanged. In words: flow cytometry: inhibition of dimer-IgG binding to human neutrophils.
Assay [12] concerns the target human IgG monomer (Sandoglobulin, Novartis) (human). In words: BIAcore equilibrium binding over immobilised human IgG monomer; two-binding site model, KD1.
The target of assay [13] is heat-aggregated IgG (HAGG). As to the kind of experiment: BIAcore equilibrium binding, receptor injected over immobilised HAGG; single-binding site.
Assay [14] addresses human IgG monomer (Sandoglobulin, Novartis) (human). In words: BIAcore equilibrium binding, receptor injected over immobilised human IgG monomer (Sandoglobulin); single-binding site.
Assay [15] concerns the target ovalbumin-anti-ovalbumin immune complexes (OVA ICs). As to the kind of experiment: cell-based or functional assay.

Take “recombinant soluble FcγRIIa dimer (rsFcγRIIa dimer), head to tail homodimer construct of FIG. 1 (from UniProt P12318 34-215) (receptor)”: the Kd in [1] was 99 nM; in assay [2], 2.73 nM; in assay [6], 3 nM; in assay [7], 100 nM; in assay [12], 3.2 nM. Besides, the IC50 in assay [3] is 0.0039 µg/mL; in [4], 0.9 to 1.1 µg/mL; in assay [10], 0.9 µg/mL; in [11] it was 1.1 µg/mL. This substance also came in with a fold more potent than the monomer protein in assay [3] of more than 500 fold. The fold greater avidity than the monomeric receptor in assay [5] turned out to be 300 fold. Also, in [8], the fold lesser KD than monomeric rsFcγRIIa was 300 fold. Further, the IC50, HAGG-induced CD62P upregulation on human platelets in [9] was 3.9 µg/mL. The fold potency against rsFcγRIIa monomer, HAGG-induced platelet activation in [9] was determined as 5 fold. This substance also gave a fold more active than rsFcγRIIa monomer in assay [11] of 10 fold.

As for “recombinant soluble FcγRIIa monomer (rsFcγRIIa monomer), expressed from pBAR426 in HEK 293E cells (from UniProt P12318 34-217) (receptor)”, the Kd in assay [6] is 1000 nM; in assay [13] it was 1050 nM; in assay [14] it was 1700 nM. The substance also returned an IC50 in assay [11] of 10.5 µg/mL.

In the case of “rsFcγRIIa monomer (R&D Systems, Cat #1330-CD/CF) (from UniProt P12318 36-218) (receptor)”, the IC50 in assay [3] came out at 2.08 µg/mL. Moreover, the IC50, HAGG-induced CD62P upregulation on human platelets in assay [9] came out at 20.9 µg/mL. In [15], this substance displayed an IC50, TNF-α release from MC/9 cells induced by OVA ICs of 17.7 µg/mL.
